Source: the RNAGym collection of RNA variant scans (doi:10.7554/elife.80360)

B1: Twister Ribozyme (parent)
chain: AACACUGCCAAUGCCGGUCCCAAGCCCGGAUAAAAGUGGAGGGGGCGG

Variants of: B1
Assay: self-cleavage, relative activity (ratio to wild type); higher = more cleavage; co-transcriptional

Variant	self-cleavage
A22C G29U	0.89
G29C U31A	1
A34C G41A	0.133
A23C G42U	0.0925
A23C A35U	0.404
A11G G38A	0.824
C8G U12G	0.676
A11U C14G	0.203
A35G G41C	0.143
G36U C46U	0.408
A32G G41C	0.211
A22U A34C	0.0816
G16A U31G	0.996
A1G U6A	0.346
C8A A30C	0.147
C25G G45C	0.143
A23C A40U	0.146
C20U A30C	0.533
A10C G13C	0.408
U12A C27A	0.744
A10G G17U	0.388
A1C A40C	0.186
G36C C46G	0.45
G24A G39C	0.0986

Variant	self-cleavage
C19U G47C	0.235
G44C G47C	0.353
C5G C46G	0.915
C27U C46A	0.825
C21G G29U	0.0841
A1C A2C	1.36
G29C A33C	0.545
C26A C46U	0.624
A35C G39U	0.144
G36C G43U	0.116
G41U G44A	0.403
G13A G48U	0.705
A1G U31A	0.24
C20U A22U	0.543
C5A A34C	0.119
A11U C20A	0.178
U12C G38U	0.781
A33C A34C	0.383
A33C A34G	0.82
C3U G43C	0.0646
C25G G28C	0.0925
G24U G43A	0.0702
C14G G47U	0.0804
C5G C20A	0.0467

Variant	self-cleavage
C21U G29A	0.096
C8G A35C	0.478
G24C A30G	0.096
C14G U18G	0.0282
A11G G39C	0.119
C5A G43U	0.108
C19G U31G	0.467
C14A C19A	0.366
A22G A35C	0.195
G38U G41U	0.196
A4G G13A	0.563
U31G G39U	0.203
A30C A32U	0.9
U18G A30U	0.0738
G13C G45C	0.138
G41A G47A	0.278
C15A G44U	0.661
G28A G45U	0.375
U18A A35G	0.123
A30C G38C	0.732
G16U A33U	0.88
C15G G43U	0.104
U6G A11G	0.52
A4G C5G	0.274

Variant	self-cleavage
C5G C26G	0.122
A30U G45A	0.817
C3A C5A	0.0993
C3G A30C	0.167
C8G G38A	0.325
C5U G16U	0.459
A40U G43C	0.114
A1C A11U	0.176
U6G G28U	0.0702
C8A U12C	0.504
U12G C25U	0.675
A2G G41A	0.102
A4U C21U	0.0656
G17A C46G	0.592
C20G A33G	0.0756
G28C G43U	0.17
C19A C25G	0.0863
A4G A32C	0.719
A10C G42U	0.26
G28C G45U	0.349
U18A A30G	0.606
C5A U18G	0.0654
A1U A4U	0.0259
G45C C46U	0.544

Variant	self-cleavage
U12A G47C	0.751
A4U G43C	0.0736
C5G G17C	0.0444
A1U G48C	0.0772
C20U G28A	0.809
C14G A22C	0.372
C3A C26U	0.132
C21A G39A	0.0763
C14U C19A	0.429
C3U C25U	0.238
C3A G47U	0.229
U6C C9A	0.0857
C9A U12A	0.916
A11U A32U	1.1
G17U G36C	0.14
C20A G28U	0.0952
A10U C20G	0.131
C9A G45U	0.232
A10U C26U	0.437
A35C G45C	0.472
A4C C26G	0.103
U6A C14U	0.795
A2C C20G	0.0956
A4U C19G	0.092

Variant	self-cleavage
A23U A34U	0.121
C14G C25G	0.0771
A23C	0.385
U37C G42C	0.196
C3A G44C	0.207
C20A G24A	0.114
G13U A23C	0.0557
G29A A40C	0.176
G17U G38U	0.158
A10U G43C	0.2
G7C G45C	0.0912
U31C G39C	0.111
A11G C25G	0.437
C3G G29A	0.348
C25A A30U	0.0882
C9A G41U	0.179
C19G U37A	0.0632
G13U A22G	0.098
C15G G29C	0.0981
A1U G44U	0.0595
U37A G43U	0.186
C3A G17C	0.0654
C25G G41A	0.146
G13C C26G	0.101

Variant	self-cleavage
G7A C20G	0.0749
A11U A35C	0.997
G16U U37G	0.409
G17U A30C	0.147
U37G G43U	0.173
G24A C27G	0.105
A35G	0.864
U37A G44A	0.873
U12C A34C	0.382
A32U C46U	1.02
G24A C46A	0.0898
A10U G45C	0.707
A33C G36C	0.101
G7C U31A	0.0718
G39C G41C	0.112
C20G A34C	0.0838
G36C G42A	0.134
G17C G48A	0.133
G17C A33C	0.0741
C3G G24U	0.0918
A32G A34C	0.137
A23G G41U	0.0995
G28U G36C	0.232
G24U U31G	0.13

Variant	self-cleavage
C27U A33G	0.702
C21U A32C	0.107
G36C U37G	0.297
G7U G17C	0.0441
G17A G48U	0.603
C3G U18A	0.116
A10U G13U	0.489
C9A U18G	0.159
C5U G48U	0.82
C5A G48A	0.539
C9U G17U	0.102
C5A A10C	0.722
A11C G47C	0.648
G24C G38C	0.144
A1G A4C	0.0744
A1C C26G	0.171
G38A G45A	0.797
A30G U37A	0.901
C9U A40U	0.162
A10U G41C	0.239
A2U A4U	0.0802
A1G A2C	1.43
G29U U31G	0.92
C19U U31A	0.682

Variant	self-cleavage
C20U A40U	0.125
A22U G29A	0.644
C9G A40G	0.109
C15U U37A	0.559
U6A U18C	0.208
A22G G43C	0.154
U6C U12G	0.465
U6C U12C	0.613
A10C G38C	0.813
C9G U12A	0.968
G16U C19U	0.697
G13U G45C	0.194
G13U G45U	0.212
G38C G45C	0.473
C15A C46U	0.623
C46A G47U	0.832
A11C G41A	0.336
C15A G41U	0.177
G36C G38A	0.459
U6A U12C	1.11
G24U A40U	0.0893
U18G G38C	0.102
C21U G36C	0.0754
C8G G44U	0.275

Variant	self-cleavage
G38C G39A	0.243
G16C G29C	0.117
C20A A34C	0.102
C3U G28C	0.167
C3U G28A	0.409
G7C A35G	0.0589
G7U A40C	0.0967
U18C U31A	0.54
A10U A30U	0.922
G29U C46G	0.88
G7U C8U	0.0467
C20A U31G	0.177
A22C A34U	0.872
C14U C26A	0.497
A33G G48C	1.07
C19A G41U	0.109
C3U C21G	0.221
U37A G41A	0.16
U37C G45A	0.691
A33U G42C	0.323
C19G G29C	0.0886
G13U G38A	0.226
U12C A30U	1.04
U6G A23C	0.0334

Variant	self-cleavage
G24A G38A	0.101
U12A C26A	0.763
C15A C19A	0.0896
A22G G24A	0.114
C8A C20A	0.0847
C5A G24C	0.0665
C3G G43U	0.124
U18C A35U	0.665
G7A G42C	0.258
G7A G42A	0.176
C14U C46A	1.05
C21A G24A	0.0758
A11C A33G	0.893
C3G C9A	0.0934
U31G G45C	0.653
U18G U37C	0.0884
G24A G44U	0.0885
G16U G17U	0.231
A34U G38A	0.654
A23U G39A	0.061
C25A C27G	0.104
G29A G48A	0.874
A22C G36A	0.547
C5G G47U	0.521

Variant	self-cleavage
G38A G47U	0.814
A1U G39C	0.0764
C25G A32G	0.216
A23G C25A	0.0465
A10G A11C	0.801
A10U C46G	0.857
G16C C19G	0.1
A4G G16U	0.839
A22C A32C	1.08
A4C U37A	0.766
C21A C27A	0.0685
G41C G48U	0.288
A4G G42C	0.186
A4G A30G	0.81
U18C G48C	0.562
C27A U37G	0.0964
G29C G38U	0.627
C5U G28A	0.572
G16U C25U	0.809
A23G A32U	0.393
A10C G24U	0.0955
A11C U12G	0.971
A40C G47A	0.19
G36C G44A	0.7

Variant	self-cleavage
G7A U12A	0.441
A2G G38A	0.448
G7C	0.0658
C26A U31A	0.638
C21A C26A	0.069
C21A C26U	0.07
C5A G42A	0.132
C15U G43A	0.225
G16U C20G	0.098
C3U G17A	0.174
C26A G38A	0.143
A23U A40U	0.0967
A1G G39U	0.198
G13U C27A	0.0958
C5G C27A	0.103
G39A A40C	0.139
C15A C27U	0.0943
U6C G24U	0.0929
A22U U37C	0.236
C25A G48A	0.106
A11U G48U	1.12
C19A G42C	0.197
A33U U37C	0.379
C20A C46A	0.0788

Variant	self-cleavage
A34C G48A	0.187
G13U G44A	0.821
C15G A35G	0.0859
C20G C25U	0.0692
A30U G48A	1
A33U G47C	0.439
A4C G47C	0.0906
C5G U37C	0.14
C20G G43A	0.0749
C5U C9A	0.349
U12A G24U	0.172
A1G G7C	0.0808
U18C G43C	0.121
A30C G36C	0.0822
U12G G24U	0.167
C3G U6A	0.13
G38C G47U	0.76
U12G C20U	0.725
C5G G42A	0.108
C5G G42U	0.0923
C5G C25G	0.0808
G41A G48A	0.332
